Reference: patent publication US20230257435A1, “Wound Healing Composition and Uses Thereof” (AGENCY FOR SCIENCE, TECHNOLOGY AND RESEARCH, priority 2020, published 2023)

What was measured:
BJ and HaCaT cells = experiment: Transwell migration assay; assay type: cell-based, human; details: sAgrin 10 μg/ml as chemoattractant
Protocol: FIG. 5 are assays showing effects of Agrin knockdown on 2D migration of keratinocytes and dermal fibroblasts. (a) RT-PCR analysis for Agrin gene expression in BJ and HaCaT cells treated with either control or Agrin siRNA. Data presented as mean+/−s.d. These knockdown cells were subsequently used for transwell migration assays. Migration was analyzed for a batch of Agrin depleted cells in response to sAgrin (10 μg/ml) in the bottom chambers as a chemoattractant (third panels). Migrating were quantified using ImageJ and represented as mean+/−s.d. (n=3, Students ‘t’ test, p=0.0004, 0.0003, and 0.0005, respectively). Scale bar: 20 μm. (b) Control, Agrin depleted, and Agrin knockdown BJ or primary mouse dermal fibroblasts (DF) cells pre-treated with 10 μg/ml sAgrin for 18 h were subjected to scratch wound assays. Representative bright-field images showing relative migration are presented at the indicated time-points. The mean non-migrated area+/−s.d. was quantified using ImageJ (n=3, Students ‘t’ test, *p<0.05, **p<0.004, ***p<0.0005, ****p=0.000002, ****p<0.000001, respectively). Scale bar: 20 μm. A Western blot verifying the knockdown of Agrin in DF is also shown with GAPDH as loading control. […] Results are quantified as in panel (b) (n=3, Students ‘t’ test, ****p<0.000001, **p<0.005, *p<0.05, respectively, all other p values are represented in the panels). […]

[1] = test system: phosphorylated myosin light chain (pMLC); experiment: Actomyosin cables / pMLC activation after wound scratch; assay type: cell-based, human
Protocol: Indicated cells post-manipulation were washed twice with cold Phosphate buffered saline (PBS) and lysed with cold 1% NP-40 lysis buffer supplemented with 1× protease inhibitor cocktail (Roche Applied Biosciences) for 15 mins at 4° C. The cell lysate was centrifuged at 13,000 rpm for 15 min. This was followed by protein estimation using Bradford reagent. Subsequently, […] of total protein was mixed with an equal volume of 2× Laemmli sample buffer and heated at 95° C. for 5 mins. This was followed by resolution with SDS-PAGE gel. The resolved proteins were transferred onto nitrocellulose membrane and blocked in 5% skimmed milk reconstituted in 1×PBS containing 0.1% Tween-20, and probed overnight with the respective primary antibody. The membrane was then washed with 1×PBS supplemented with 0.1% Tween-20: three times at 15 min intervals. This was followed by 1 h incubation in conjugated horseradish peroxidase HRP secondary antibody (Santa Cruz Biotechnology). Post-incubation, the blot was again washed three times as above and then overlaid with enhanced chemiluminescence (ECL) substrate (Pierce/Bio-Rad) and visualized on X-ray film by image processor or digitally by Chemidoc analyzer (Bio-Rad). The density of the various bands was quantified using the Image-J software.
Cells were cultured on eight-well chamber slides or coverslips over-night. Cells were then washed twice with PBS and fixed for 15 min with 4% paraformaldehyde. Subsequently, the cells were permeabilized for 15 min with 0.1% Triton X in Phosphate buffered saline containing 1 mM Ca^+2 and 1 mM Mg^+2 (PBSCM) at room temperature. The permeabilized cells were incubated with indicated antibodies in fluorescent dilution buffer (FDB) for 1-2 h at RT or overnight at 4° C., followed by 5 washes with PBSCM and incubation with secondary antibody; Alexa Fluor (Thermo Fisher Scientific) for 1 h at RT. Slides were again washed five times with PBSCM and mounted with Vectashield medium containing DAPI. The stained cells were then imaged by a Zeiss confocal microscope. The images were processed and analyzed by Zen blue software. Intensity measurements were acquired using tool selection parameter in image analysis within the Zen blue software.
A confluent monolayer of control and Agrin depleted cells in a 6-well plate was subjected to a unidirectional scratch using a 20 μl pipette tip. This was followed by washing with 1×PBS at room temperature and incubation in complete culture media at 37° C. and 5% CO2 with or without sAgrin used as indicated. Phase contrast images of the wound area were taken periodically at the indicated time-points. For some wound-healing migration assays, keratinocytes were cultured on either soft or stiff substrates within a stencil barrier (Nalge Nunc., Inc) for 18 h. Upon removal of the barrier, the cells were allowed to migrate and imaged using an Axiovert 200 inverted microscope at indicated time-points.

mouse keratinocytes = experiment: Cell stiffness by atomic force microscopy (AFM); assay type: cell-based
Protocol: The stiffness of the mouse keratinocyte cells was measured using a Nanowizard IV BioAFM system (JPK Instruments, Germany). Confluent mouse kerantinocyte monolayers were cultured on a petri dish in PBS media. The monolayers were scratched across the center of the petri dish using a 100 μl pipette tip and characterised after 4 hrs. Indentations were performed on randomly selected cells at the wound edge with a polystyrene bead of diameter (˜4.5 μm) attached to the end of a cantilever (k=0.03 N/m, Novascan Technologies, Inc., Ames, Iowa) using a force of 3 nN at 1 Hz. More than 60 cells from triplicate experiments were characterized and averaged to evaluate the Young's modulus for each condition. Young's modulus values were calculated using JPK Data Processing Software (JPK Instruments, Germany), which employs Hertz's contact model for spherical indenters (diameter 4.5 μm; Poisson's ratio 0.5) fitted to the extend curves.

B1: sAgrin: C-terminus recombinant Agrin fragment containing 8 amino acid 'Z8' insert and LG3 domain (SEQ ID NO: 7), His-tagged, expressed in E. coli (protein)
chain: DTLAFDGRTFVEYLNAVTESELANEIPVEKALQSNHFELSLRTEATQGLVLWSGKATERADYVALAIVDGHLQLSYNLGSQPVVLRSTVPVNTNRWLRVVAHREQREGSLQVGNEAPVTGSSPLGATQLDTDGALWLGGLPELPVGPALPKAYGTGFVGCLRDVVVGRHPLHLLEDAVTKPELRPCPTP
modifications: His tag
trans-well migration (rescue of Agrin knockdown) (BJ and HaCaT cells): in part, rescued | pMLC recruitment to wound edges ([1]; 10 μg/ml sAgrin 18 h): strong recruitment of pMLC to wound edges forming stable actomyosin cables | actomyosin cables in Agrin deprived cells ([1]; 10 μg/ml sAgrin 18 h, within 4 h post-wounding): restored | actomyosin cable network in MMP12 suppressed cells ([1]; MMP12 siRNA, 10 μg/ml sAgrin 18 h): did not restore actomyosin cable network | pMLC levels in MMP12 depleted keratinocytes ([1]; within 2 h post-wounding): unable to rescue the severely diminished pMLC levels | pMLC activation in Agrin depleted cells ([1]; within 2 h post-wounding, sAgrin pre-treatment): restored | stiffness of migrating MMP12 knockdown keratinocytes (mouse keratinocytes; 4 h post-injury, sAgrin treatment): not restored by sAgrin treatment | stiffness of migrating keratinocytes (mouse keratinocytes; Agrin knockdown rescued with 10 μg/ml sAgrin, 4 h post-wound scratch, control ~2.1, knockdown ~0.9 KPa): ~1.5 KPa
